Test results published in the supplement of paper PMC10567573.

B1: KRT13 (parent)
chain: YGGGLGGGFGGGFAGGFVDFGACD
B2: EPB41L3 (parent)
chain: FRFAPNHTKELEDKVIELHKSHRG

Variants of: B1
Test: protein stability index of a GFP-peptide fusion (GPS, HEK-293T) (PSI 1-6); higher = more stable
Details: c terminus: a fixed tail appended
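Note: lentivirally expressed fusions sorted by FACS into six bins by GFP to DsRed ratio, PSI derived from sequencing read proportions per bin multiplied by bin number.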

Protein stability index, by site and new letter:
F20: E 2.18; G 1.75; H 2.69; I 1.27; K 2.11; L 1.56; M 1.53; N 2.31; P 1.69; Q 2.36; R 1.78; S 1.82; T 2.22; V 1.36; W 2.62; Y 1.5
G21: A 2.25; C 1; D 1.92; E 1.88; F 2.87; H 1.93; I 1.99; K 1.93; M 2.21; N 1.68; P 1.67; Q 1.76; R 2.37; S 2.02; T 2.69; V 1.6; W 1.99; Y 3.5
A22: C 1.9; D 1.42; E 1.92; F 2.1; H 1.54; I 1.33; K 1.98; L 1.2; M 2.09; N 1.95; P 2.27; Q 2.34; S 1.2; T 1.9; V 2.4; W 1.75; Y 1.99
C23: A 3.97; D 1.31; E 2.14; F 1.41; G 1.83; H 2.2; I 1.53; K 2.01; L 1.72; M 1.49; N 1.76; P 1.8; Q 1.31; R 2.79; S 1.92; T 1.81; V 1.22; W 1.84; Y 1.6
D24: E 2.57; F 2.17; H 1.49; I 5.23; K 1.43; N 3.54; P 1.85; Q 1.91; R 2.16; S 2.43; T 1.91; V 2.45; W 3.82

Variants of: B2
Test: as above
Details: c terminus: a fixed tail appended

Protein stability index of substitutions, site by site:
F1: A 4.17; C 2.93; D 4.4; E 4.2; G 3.6; H 4.62; I 2.69; K 4.35; L 3.78; M 3.68; N 3.62; P 3.99; Q 3.89; R 4.41; S 4.58; T 4.12; V 3.08; W 2.26; Y 3.73
R2: A 3.49; C 3.36; D 3.5; E 4.02; F 2.81; G 3.94; H 2.01; I 2.03; K 3.81; L 2.78; M 2.89; N 3.96; P 3.82; Q 3.89; S 3.56; T 3.79; V 2.36; W 2.88; Y 3.27
F3: A 3.78; C 3.74; D 4.48; E 4.57; G 4.63; H 4.03; I 3.86; K 4.63; L 3.48; M 4.02; N 4.21; P 4.25; Q 4.16; R 3.6; S 4.07; T 3.99; V 4.42; W 2.97; Y 2.28
A4: C 2.2; D 3.9; E 2.87; F 3.19; G 3.08; H 2.42; I 2.24; K 3.06; L 2.82; M 2.65; N 3.77; P 2.98; Q 2.18; R 3.33; S 3.9; T 2.24; V 1.82; W 2.41; Y 2.88
P5: A 2.73; C 2.4; D 3.38; E 3.49; F 1.24; G 1.98; H 2.31; I 2.63; K 3.47; L 2.75; M 2.31; N 2.24; Q 2.07; R 2.15; S 1.92; T 2.44; V 2.37; Y 1.24
N6: C 1.97; D 2; E 3.17; F 1.74; G 2.56; H 2.54; I 1.55; K 1.92; L 2.37; M 1.83; P 2.23; Q 2.02; R 2.03; S 2.17; T 2.08; V 1.53
H7: A 2.83; C 1.47; D 2.96; E 1.96; F 1.73; G 2.42; I 2.09; K 1.88; L 1.62; M 2.3; N 2.16; P 2.1; Q 2.28; R 2.11; S 1.93; T 1.91; V 1.85; W 1.6; Y 2.07
T8: A 2.11; C 2.02; D 2.01; E 2.78; F 2.3; G 1.86; H 1.74; I 2.49; K 2.39; L 1.82; M 2.21; N 2.17; P 1.75; R 1.92; S 1.92; V 1.98; W 1.84; Y 2.05
K9: A 1.71; C 2.44; D 1.82; E 2.21; F 2.14; G 2.04; H 2.06; I 2.56; L 1.47; M 1.77; N 2.39; P 2.15; Q 2.11; R 1.7; S 2.88; T 1.37; V 2.24; W 2.34; Y 1.99
E10: A 1.97; C 1.46; D 1.9; F 1.22; G 2.04; H 1.81; I 2.07; K 2.59; L 1.9; M 1.69; N 1.41; P 1.63; Q 1.68; R 1.95; S 2.07; T 1.84; V 1.73; W 1.21; Y 1.97
L11: A 1.54; C 2.18; D 2.53; E 1.97; F 2.48; G 2.89; H 2.29; I 2.46; K 2.53; M 1.83; N 1.65; P 1.87; Q 2.25; R 1.92; S 1.72; T 2.21; V 2.25; W 1.99; Y 2.05
E12: A 1.99; C 1.83; D 1.83; F 2.17; G 2.33; H 2.34; I 1.27; K 1.96; L 1.97; M 1.75; N 1.74; P 2.34; Q 2.09; R 1.56; S 2.41; T 1.36; V 1.45; W 2.97; Y 1.22
D13: A 1.82; C 2.65; E 2.8; F 1.52; G 3.4; H 1.89; I 2.9; K 1.86; L 2.2; M 1.9; N 2.79; P 1.78; Q 3.39; R 2.77; S 2.14; T 1.67; V 1; Y 1.95
K14: A 2.34; C 1.89; D 2.32; E 2.53; F 1.8; G 2.48; H 2.74; I 2.66; L 1.78; M 2.01
